The subject of experiment [1] is PSMA positive C4-2 and LNCaP tumor cells. In words: Antigen-specific activation (CD69) of CAR expressing Jurkat cells by PSMA positive tumor cells. It counts as cell-based. On the procedure: Panel (C) presents the antigen-specific-activation profile, CAR expressing Jurkat cells were stimulated for 24 h at an 1:1 effector-to-target ratio with either PSMA positive, PD-L1 negative C4-2 tumor cells (PSMA+/PDL1−), or PSMA positive, PD-L1 positive LNCaP tumor cells (PSMA+/PDL1+). As a negative control, CAR cells were co-cultured with PSMA negative DU145 tumor cells (PSMA−). Following 24 h stimulation, cells were harvested and activation profile was assessed by evaluating the percentage of cells that are positive for the activation marker CD69. Statistically significant differences are indicated by ****(P<0.001).
Panel (D) depicts the characterization of employed prostate cancer cell lines. The extent of PSMA target antigen expression (left) and PD-L1 (CD274) expression (right) was assessed on C4-2, LNCaP and DU145 prostate cell lines. For flow cytometric analysis, cells were either stained with 3/F11 1 antibody (anti-PSMA) or an anti-CD274 antibody. UT, untransduced T cells; PD-L1, Programmed cell death ligand 1; PSMA; prostate specific membrane antigen. As shown in panel D (left), both C4-2 and LNCaP tumor cells express the PSMA antigen while the DU145 is negative for the PSMA antigen. […]
The antigen-specific activation of transduced Jurkat T cells was measured by monitoring the expression of the activation marker CD69 upon antigen stimulation FIG. 9C. […]

The target in experiment [2] is PSMA-expressing cells (Homo sapiens, UniProt Q04609). As to conditions: cited from earlier work.
Chain of PSMA-expressing cells (Q04609 whole entry): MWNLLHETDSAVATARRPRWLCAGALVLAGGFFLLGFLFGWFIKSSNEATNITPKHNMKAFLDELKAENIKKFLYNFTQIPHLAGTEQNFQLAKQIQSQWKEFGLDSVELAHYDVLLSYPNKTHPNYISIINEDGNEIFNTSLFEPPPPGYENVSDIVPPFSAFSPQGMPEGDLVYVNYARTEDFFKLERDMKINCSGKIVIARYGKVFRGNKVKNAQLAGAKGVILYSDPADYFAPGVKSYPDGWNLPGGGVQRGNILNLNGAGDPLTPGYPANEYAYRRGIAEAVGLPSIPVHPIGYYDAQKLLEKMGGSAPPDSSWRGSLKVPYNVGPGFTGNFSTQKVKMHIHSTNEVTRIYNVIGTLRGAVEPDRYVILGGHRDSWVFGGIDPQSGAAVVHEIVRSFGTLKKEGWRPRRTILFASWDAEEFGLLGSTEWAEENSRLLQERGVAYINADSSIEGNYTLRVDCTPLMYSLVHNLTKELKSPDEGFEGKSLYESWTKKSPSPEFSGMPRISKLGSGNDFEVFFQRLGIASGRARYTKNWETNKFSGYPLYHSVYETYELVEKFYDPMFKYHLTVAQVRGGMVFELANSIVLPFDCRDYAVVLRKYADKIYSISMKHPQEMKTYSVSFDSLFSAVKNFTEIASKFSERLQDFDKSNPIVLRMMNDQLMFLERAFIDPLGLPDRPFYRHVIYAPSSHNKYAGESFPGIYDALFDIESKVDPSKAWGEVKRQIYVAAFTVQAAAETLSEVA

B1: A5-based CAR: 2nd generation anti-PSMA CAR: scFv A5, Fc IgG1 hinge, transmembrane domain, CD28 costimulatory domain, CD3ζ; SEQ ID NO:39 (protein)
chain: MDFQVQIFSFLLISASVIMSRDVKLVESGGGLVKPGESLKLSCIASGFTFSDYYMYWVRQTPEKRLEWVAIISDGGYYTYYSDIIKGRFTISRDNAKNNLYLQMSSLKSEDTAMYYCTRGFPLLRHGAMDYWGLGTSVTVSSGGGGSGGGGSGGGGSDIQMTQSPKFMSTSVGDRVSVTCKASQNVDTNVAWYQQKPGQSPKALIYSASYRYSDVPDRFTGSESGTDFTLTISNVQSEDLAEYFCQQYDSYPYTFGGGTKLEIKSDPAEPKSPDKTHTCPPCPAPPVAGPSVFLFPPKPKDTLMIARTPEVTCVVVDVSHEDPEVKFNWYVDGVEVHNAKTKPREEQYNSTYRVVSVLTVLHQDWLNGKEYKCKVSNKALPAPIEKTISKAKGQPREPQVYTLPPSRDELTKNQVSLTCLVKGFYPSDIAVEWESNGQPENNYKTTPPVLDSDGSFFLYSKLTVDKSRWQQGNVFSCSVMHEALHNHYTQKSLSLSPGKKDPKFWVLVVVGGVLACYSLLVTVAFIIFWVRSKRSRLLHSDYMNMTPRRPGPTRKHYQAYAAARDFAAYRSLRVKFSRSADAPAYQQGQNQLYNELNLGRREEYDVLDKRRGRDPEMGGKPRRKNPQEGLYNELQKDKMAEAYSEIGMKGERRRGKGHDGLYQGLSTATKDTYDALHMQALPPR
modifications: A5CAR28
In the case of B1, the CD69-positive cells entry in experiment [1] (24 h, 1:1 effector-to-target ratio, C4-2 or LNCaP) is on record as “about 70%”. The “activation of Jurkat cells upon antigen-specific sensitization” value in experiment [1] (CD69) is recorded as “massive activation”.

B2: A5: single-chain variable fragment generated by phage display from mAb 3/A12; SEQ ID NO:42 (protein, listed as Mus musculus)
scFv: DVKLVESGGGLVKPGESLKLSCIASGFTFSDYYMYWVRQTPEKRLEWVAIISDGGYYTYYSDIIKGRFTISRDNAKNNLYLQMSSLKSEDTAMYYCTRGFPLLRHGAMDYWGLGTSVTVSSGGGGSGGGGSGGGGSDIQMTQSPKFMSTSVGDRVSVTCKASQNVDTNVAWYQQKPGQSPKALIYSASYRYSDVPDRFTGSESGTDFTLTISNVQSEDLAEYFCQQYDSYPYTFGGGTKLEIK
modifications: murine scFv A5
As for B2, the Kd (commonly the equilibrium constant for the complex coming apart) in experiment [2] was about 33 nM.

The record behind these values is patent US12428492B2, “Chimeric antigen receptors that bind to prostate specific membrane antigen” (Albert-Ludwigs-Universitaet Freiburg, priority 2019, dated 2025).
